Measured values reported in the supplement of paper PMC9112550, “Optimization of the antimicrobial peptide Bac7 by deep mutational scanning” (BMC Biology, 2022).

System: Escherichia coli TOP10
Assay: shrunken log2 fold change of peptide-encoding DNA abundance (4.5 h post-induction vs induction); higher = less antimicrobial activity (less host growth inhibition)
Conditions: time post-induction: 4.5 h; library: site-saturation at positions 5, 18, 19, 20
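Also: peptides expressed intracellularly from a pBAD plasmid library in pooled LB shake-flask culture, induced with 0.3% L-arabinose, DNA abundance read by NGS, three biological replicates, DESeq2 with apeglm shrinkage.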

Sequence | shrunken log2 fold change
RRIRDRPPRLPRPRPRPGHIPRP | -0.0814
RRIRDRPPRLPRPRPRPGHRPRP | -0.0741
RRIRDRPPRLPRPRPRPGHWPRP | 0.315
RRIRDRPPRLPRPRPRPGIDPRP | -0.245
RRIRDRPPRLPRPRPRPGIEPRP | 0.103
RRIRDRPPRLPRPRPRPGILPRP | -0.197
RRIRDRPPRLPRPRPRPGISPRP | 0.0115
RRIRDRPPRLPRPRPRPGKIPRP | -0.176
RRIRDRPPRLPRPRPRPGKMPRP | 0.0346
RRIRDRPPRLPRPRPRPGNDPRP | 0.0652
RRIRDRPPRLPRPRPRPGPGPRP | 0.764
RRIRDRPPRLPRPRPRPGPKPRP | 0.386
RRIRDRPPRLPRPRPRPGPTPRP | 0.355
RRIRDRPPRLPRPRPRPGSQPRP | 0.0966
RRIRDRPPRLPRPRPRPGSSPRP | 0.0783
RRIRDRPPRLPRPRPRPGTEPRP | 0.974
RRIRDRPPRLPRPRPRPGTKPRP | -0.0282
RRIRDRPPRLPRPRPRPGVMPRP | 0.521
RRIRDRPPRLPRPRPRPGVNPRP | 0.148
RRIRDRPPRLPRPRPRPGVSPRP | 0.158
RRIRDRPPRLPRPRPRPGWHPRP | 0.27
RRIRDRPPRLPRPRPRPGYGPRP | -0.0481
RRIRDRPPRLPRPRPRPHAVPRP | 0.163
RRIRDRPPRLPRPRPRPHAYPRP | -0.218
RRIRDRPPRLPRPRPRPHCPPRP | -0.191
RRIRDRPPRLPRPRPRPHCRPRP | -0.123
RRIRDRPPRLPRPRPRPHDLPRP | -0.0733

Sequence | shrunken log2 fold change
RRIRDRPPRLPRPRPRPHERPRP | 0.0603
RRIRDRPPRLPRPRPRPHEYPRP | -0.01
RRIRDRPPRLPRPRPRPHFHPRP | -0.0477
RRIRDRPPRLPRPRPRPHHWPRP | 0.172
RRIRDRPPRLPRPRPRPHIKPRP | -0.598
RRIRDRPPRLPRPRPRPHIMPRP | -0.981
RRIRDRPPRLPRPRPRPHINPRP | -0.683
RRIRDRPPRLPRPRPRPHITPRP | -0.7
RRIRDRPPRLPRPRPRPHKLPRP | 0.00695
RRIRDRPPRLPRPRPRPHKMPRP | -0.293
RRIRDRPPRLPRPRPRPHKVPRP | -0.0568
RRIRDRPPRLPRPRPRPHLAPRP | 0.302
RRIRDRPPRLPRPRPRPHMCPRP | 0.0514
RRIRDRPPRLPRPRPRPHMHPRP | -0.0478
RRIRDRPPRLPRPRPRPHMQPRP | -0.368
RRIRDRPPRLPRPRPRPHMTPRP | -0.0927
RRIRDRPPRLPRPRPRPHNVPRP | 0.00884
RRIRDRPPRLPRPRPRPHPEPRP | 0.004
RRIRDRPPRLPRPRPRPHPTPRP | 0.0176
RRIRDRPPRLPRPRPRPHRNPRP | -0.0138
RRIRDRPPRLPRPRPRPHRRPRP | -0.247
RRIRDRPPRLPRPRPRPHSFPRP | 0.0961
RRIRDRPPRLPRPRPRPHSWPRP | 0.05
RRIRDRPPRLPRPRPRPHTGPRP | -0.0359
RRIRDRPPRLPRPRPRPHTHPRP | -0.0285
RRIRDRPPRLPRPRPRPHVAPRP | -0.0272
RRIRDRPPRLPRPRPRPHVRPRP | -0.12
